Assay results: the nanobody polyreactivity screen of Harvey et al. (2022)

Experiment: yeast display, Sf9 membrane polyspecificity reagent, FACS + sequencing; frameworks hold sequencing errors
In short: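 Nanobodies from a synthetic yeast display library (Saccharomyces cerevisiae BJ5465), induced 36–48 hours with galactose, were stained 1 hour at 4 °C with 10% biotinylated, detergent-solubilized Sf9 membrane reagent, enriched on streptavidin microbeads, then FACS-sorted. Anti-HA (expression) and streptavidin (reagent binding) fluorescence set low and high (top ~1%) gates. Polyreactivity labels come from the gate of origin. Genes were colony-PCR amplified, MiSeq 2 × 250 sequenced and filtered by CDR length.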

Sequence: QVQLVESGGGLVQAGGSLRLSCAASGFTFRIYTMGWYRQAPGKERELVAAIRWSDGTTYYADSVKGRFTISRDNAKNTVYLQMNSLKPEDTAVYYCAAYTYYYYYWGQGTQVTVSS
- polyreactivity (PSR sort gate): high polyreactivity

Sequence: QVQLVESGGGLVQAGGSLRLSCAASGFTFRKKAMGWYRQAPGKERELVAAIRGSAGSTYYADSVKGRFTNSRDNAKITVYLQMNSLQQEDTAVYYCATGGYPSLWYGYGYWGQGTQVTVSS
- polyreactivity (PSR sort gate): low polyreactivity

Sequence: QVQLVESGGGLVQAGGSLRLSCAASGFTFRKNAMGWYRHAPGKERELVAVISSSGGSTSYADSVKRRFTISRDNAKNTVYLQMNSLKPEDTAVYYCAAGSSRLRALYNYWGQGSQVTVSS
- polyreactivity (PSR sort gate): high polyreactivity

Sequence: QVQLVESGGGLVQAGGSLRLSCAASGFTFRKNAMGWYRQAPGKERELVAAINSSGGSTYYADSVKGRFTISRDNAKNTVYLQMKSLKQEDTAVYSCNAVGRSLARPRGDYWGQGTQVTVSS
- polyreactivity (PSR sort gate): high polyreactivity

Sequence: QVQLVESGGGLVQAGGSLRLSCAASGFTFRKNAMGWYRQAPGKERELVAAISRRGGRTYYADSVKGRFTISRDNAKNTVYLQMNSLKPEDSAVYYCNDDEYGGSSGRKGRYNYWGQGTQVTVSS
- polyreactivity (PSR sort gate): low polyreactivity

Sequence: QVQLVESGGGLVQAGGSLRLSCAASGFTFRKNAMGWYRQAPGKERELVAAISSGSGSTYYADSVKGRFTISRDNAKNTVYLQMNSLKPEDTAVYYCNSEAYYTTGYPTSDVFDRYDYWGKGTQVTVSS
- polyreactivity (PSR sort gate): low polyreactivity

Sequence: QVQLVESGGGLVQAGGSLRLSCAASGFTFRKYAMGWYRQAPGKERELVADISGGTGSTYYADSVKGRFTISRDNAKNTDYLHMNSLKPEDTAVYYCNAEGWYYLTEYGYWGQGTQLTVSS
- polyreactivity (PSR sort gate): low polyreactivity

Sequence: QVQLVESGGGLVQAGGSLRLSCAASGFTFRKYAMGWYRQAPGKESELVAAISWSGGSTYYADSVKGRFTISRDNAKNTVYLQMNSMKPEDTAVYYCAAPHWSPYDYWGQGTQVTVSS
- polyreactivity (PSR sort gate): high polyreactivity

Sequence: QVQLVESGGGLVQAGGSLRLSCAASGFTFRLVNAMGWYRQAPGKERELVAGINSGDITYYADSVKGRFTISRDNAKNTVYLQMNSLKPEDTAVYYCAARVAWGYDYWGQGTQVTVSS
- polyreactivity (PSR sort gate): low polyreactivity

Sequence: QVQLVESGGGLVQAGGSLRLSCAASGFTFRNYAMGWYIQAPGKERELVATISWSGTSTYYADSVKGRFTISRDNAKNTVYLQMNSLKPEDTAVYYCAARGRHSGYYSFPYYYWGQGTQVTVSS
- polyreactivity (PSR sort gate): low polyreactivity

Sequence: QVQLVESGGGLVQAGGSLRLSCAASGFTFRNYAMGWYRQAPGKEREFVAAISFSGGRTYYADSVKGRFTISRDNAKNTVYLQMNSLKPEDTAVYYCAKKSYSKYDYWGQGTQVTVSS
- polyreactivity (PSR sort gate): low polyreactivity

Sequence: QVQLVESGGGLVQAGGSLRLSCAASGFTFRPYVMGCYRQAPGKERELVAGISTGGSTYYADSVKGRFTISRDNAKNTVYLQMNSLKPEDTAVYYCAKRGKQYRKMNYWGQGTQVTVSS
- polyreactivity (PSR sort gate): high polyreactivity

Sequence: QVQLVESGGGLVQAGGSLRLSCAASGFTFRQNAMGWYIQAPGKERELVAAISRGGGGTHYADSVKGRFTISRDNAKNNVYLHMNSLKPEDTAVYYCAKRRYPTFVVPVYYWGQGTQVTVSS
- polyreactivity (PSR sort gate): high polyreactivity

Sequence: QVQLVESGGGLVQAGGSLRLSCAASGFTFRQNSIGWSRQAPGKERELVAAISRSGSRTYYADSVKGRFTISRDNAKNTVYLQMIRLKPEDTAVYYCKAVFSSFTVEYYWGQGTQVTVSS
- polyreactivity (PSR sort gate): high polyreactivity

Sequence: QVQLVESGGGLVQAGGSLRLSCAASGFTFRRNAMGWYRQAPGKERELVAAITASGGRTYYADSVKGRFTISRDYAKNTVYLQMNSLKPEDTAVFYCAARLRNIYYFRMGYWGQGTKVTVSS
- polyreactivity (PSR sort gate): high polyreactivity

Sequence: QVQLVESGGGLVQAGGSLRLSCAASGFTFRRNAMGWYRQAPGKERELVAAITRGGGSTYYADSVKGRFTISRDNAKNTVYLQMNSLKPEDTAVYYCAADGYYQYESWGQGTQVTVSS
- polyreactivity (PSR sort gate): high polyreactivity

Sequence: QVQLVESGGGLVQAGGSLRLSCAASGFTFRRYAMGWYIQAPGKERELVAAIRSTGGSTYYADSVKGRFTISRDNAKNTVYLQMNSLKPEDTAVYYCNAGTPVRGYNYWGQGTQVTVSS
- polyreactivity (PSR sort gate): high polyreactivity

Sequence: QVQLVESGGGLVQAGGSLRLSCAASGFTFRRYAMGWYRQAPGKERELVAAINWNGDSTYYADSVKGRFTISRDNAKNTVYLQMNSVKPEDTAVYYCATSDYYYDYWGQGTQVTVSS
- polyreactivity (PSR sort gate): high polyreactivity

Sequence: QVQLVESGGGLVQAGGSLRLSCAASGFTFRRYAMGWYRQAPGKERELVAAISIRGGRTYYADSVKGRFTISRDNAKNTVYLQMNSLKPEDTAVYYCAAEVGFWGYGGYYYWGQGTQVTVSS
- polyreactivity (PSR sort gate): high polyreactivity

Sequence: QVQLVESGGGLVQAGGSLRLSCAASGFTFRRYAMGWYRQAPGKERELVAAISYSGGITYYADSVKGRFTISRDNAKNTVYLQMNSLKPEDTAVYYCAAESVWTWYYTTAGMDYWGQGTQVTVSS
- polyreactivity (PSR sort gate): high polyreactivity

Sequence: QVQLVESGGGLVQAGGSLRLSCAASGFTFRRYAMGWYRQAPGKERELVAAITWSGGSTYYADSVKGRFTISRDNAKNTVYLQMNSLKPEDTAVYYCNKAYSPLYFSYNYWGQGTQVTVSS
- polyreactivity (PSR sort gate): high polyreactivity

Sequence: QVQLVESGGGLVQAGGSLRLSCAASGFTFRRYAMGWYRQAPGKERELVATITKGGGSTYYADSVKGRFTISRDNAKNTVYLQMNSLKPEDTAVYYCAKRYPYGLTVGASDYWGQCTQVTVSS
- polyreactivity (PSR sort gate): high polyreactivity

Sequence: QVQLVESGGGLVQAGGSLRLSCAASGFTFRRYAMGWYRQAPGKERELVAVITSTDSTYYADSVKGRFTISRDNAKNTVYFQMYSLKPEDTAVYYCARVYLGPRYAVFIYGYWGQGTQVTVSS
- polyreactivity (PSR sort gate): high polyreactivity

Sequence: QVQLVESGGGLVQAGGSLRLSCAASGFTFRRYAMGWYRQAPGKERELVAVITTAGSTNYADSVKGRFTISRDNAKNTVYLQMNSLKPEDTAVYYCATDNGTRKRRYDYWGQGTQVTVSS
- polyreactivity (PSR sort gate): low polyreactivity

Sequence: QVQLVESGGGLVQAGGSLRLSCAASGFTFRRYAMGWYRQAPGKERELVAVITTGGSTYYADSVKGRFTISRDNAKYTVYLQMNSLKPEDTAVYYCAARYYWYSQEYVMSSWWGDYWGLGTQVTVSS
- polyreactivity (PSR sort gate): high polyreactivity

Sequence: QVQLVESGGGLVQAGGSLRLSCAASGFTFRRYDMGWYRQAPGKERELVATINRGGSTDYADSVKGRFTISRDNAKNTVYLQMNSLKPEDTAVYYCATRYYSSRTWSEYYYWGQGTQVTVSS
- polyreactivity (PSR sort gate): high polyreactivity

Sequence: QVQLVESGGGLVQAGGSLRLSCAASGFTFRRYTMGWYRQAPGKERELVARISSRGGRTFYADSVKGRFTISRDNAKNTVYLQMNSLKPEDTAVYYCAKRAPYGTTSPGGDYWGQGTQVTVSS
- polyreactivity (PSR sort gate): high polyreactivity

Sequence: QVQLVESGGGLVQAGGSLRLSCAASGFTFRRYVMGWYRQAPGKERELVAAISSGGRTNYADSVKGRFTISRYNAKNTVYLQMNSLKPEDTAVYYCNKASTSYYRFNYWGQGTQVTVSS
- polyreactivity (PSR sort gate): high polyreactivity

Sequence: QVQLVESGGGLVQAGGSLRLSCAASGFTFRSNVMGWSRQAPGKERELVAGITQRGGRTYYADSEKGRFTISRDNAKNTVYLQMNSLKPEDTAVYYCAADRSEYDYWGQGTQVTVSS
- polyreactivity (PSR sort gate): high polyreactivity

Sequence: QVQLVESGGGLVQAGGSLRLSCAASGFTFRSNVMGWYRQATGKERELVAAISWSGGSTYYADSVKGRFTISRDNAKNNVYLQMNSLKPEDTAVYYCATVQVVGPWSYRKLDYWGQGTQVTVSS
- polyreactivity (PSR sort gate): high polyreactivity

Sequence: QVQLVESGGGLVQAGGSLRLSCAASGFTFRTNAMGWYRQAPGKERELVAVISRRGGSTYYADSVKGRFTISRDNAKNTVYLQMNSLKPEDTGVYYCNAGDGTVGRTYYRAYDYWGQGTQVTVSS
- polyreactivity (PSR sort gate): high polyreactivity

Sequence: QVQLVESGGGLVQAGGSLRLSCAASGFTFRTYAMGWYRQAPGKERELVATIRRAGSTNYADSVKGRFTISRDNAKNTVYLQMNSLNPEDTAVYYCAARVVTRVRGVGYNYWGQGTQVTVSS
- polyreactivity (PSR sort gate): high polyreactivity

Sequence: QVQLVESGGGLVQAGGSLRLSCAASGFTFRVNAMGWYRQAPGKERELVAAISSGGRTYYADSVKGRFTISRDNAKNTVYLQMNSLKPEDTAVYYCNAGRVRHGNDYWGQGTQVTVSS
- polyreactivity (PSR sort gate): high polyreactivity

Sequence: QVQLVESGGGLVQAGGSLRLSCAASGFTFRVNAMGWYRQAPGKERELVAAISSGGSTNYADSVKGRFTISRDNAKYTVYLQMNSLKPEDTAVYYCAKRFKYIYYWGQGTQVTVSS
- polyreactivity (PSR sort gate): high polyreactivity

Sequence: QVQLVESGGGLVQAGGSLRLSCAASGFTFRVNAMGWYRQAPGKERELVAAITYSGGSTYYADSVKGRFTISRDNAKNTVYLQMNSLKPEDTAVYYCNKARWNSWLYGYHYRGLRSYDYWGQGTQVSVSS
- polyreactivity (PSR sort gate): high polyreactivity

Sequence: QVQLVESGGGLVQAGGSLRLSCAASGFTFRVNAMGWYRQAPGKERELVASITVSGGNTYYADSVKGRFTISRDNEKNTVYLLMNSLKPEDTAVYYCATDFSPVYYTRYDYWGQGTQVTVSS
- polyreactivity (PSR sort gate): low polyreactivity

Sequence: QVQLVESGGGLVQAGGSLRLSCAASGFTFRVYAMGWYIQAPGKERELVAAITKRGGTTYYADSVKGRFTISRDNAKNTVYLQMNSLKPEDTAVYYCATENTPHYASHGYLGQGTQVTVSS
- polyreactivity (PSR sort gate): high polyreactivity

Sequence: QVQLVESGGGLVQAGGSLRLSCAASGFTFRVYAMGWYRQAPGKERELVAVISGTGGRTYYADSVKGRFTISRDIAKNTVYLQMNSLKPEDTAVYYCARRGRPPAIYDYWGQGTQVTVSS
- polyreactivity (PSR sort gate): high polyreactivity

Sequence: QVQLVESGGGLVQAGGSLRLSCAASGFTFRVYAMGWYRTAPVKEREFVASITWGGGRTYYADSVKGRFTISRDNAKNTVYLLMNSLKPEDTAVYYCAAYGSLDSYVSYYYWGQGTQVTVSS
- polyreactivity (PSR sort gate): high polyreactivity

Sequence: QVQLVESGGGLVQAGGSLRLSCAASGFTFRWYAMGWYRPAPGKERELVADISRGGSTNYADSVKGRFTISRDNAKNTVYLQMNSLKPEDTAVYYCAAVVYRATYRVGGYLWYYYWGQGTQVTVSS
- polyreactivity (PSR sort gate): high polyreactivity

Sequence: QVQLVESGGGLVQAGGSLRLSCAASGFTFRWYAMGWYRQAPGKERELVAAISSGGGSTYYADSVKGRFTISRDNAKNTVYLQMNSLKPEDTAVYYCNARIQYFKYRGYEYWGQGTQVTVSS
- polyreactivity (PSR sort gate): high polyreactivity

Sequence: QVQLVESGGGLVQAGGSLRLSCAASGFTFRWYAMGWYRQAPGKERELVAAISSSGGSTYYADSVKGRFTISRDNAKNTVYLQMKSLKPEDTAVYYCNTDANYLTNTIYDYWGQGTQVTVSS
- polyreactivity (PSR sort gate): high polyreactivity

Sequence: QVQLVESGGGLVQAGGSLRLSCAASGFTFRWYAMGWYRQAPGKERELVAAISTSGGSTYYADSVKGRFTITRDNAKNTVYLQMNSLKPEDTSVYYCNRVNNYPTRKYDYWGQGSQVTVSS
- polyreactivity (PSR sort gate): high polyreactivity
